From publication PMC7119934 (Peptide Characterization and Application Protocols, 2007)

Target: the molecule itself
Experiment: SEC

QKQIANQFNKAISQIQESLTTTSTALGKLQDVVNQNAQALNTLVKQLSS [HRN extended (902–950)]
stoichiometry N: 3
